Results on three molecules are retold here after paper PMC6774396 (Frontiers in Immunology, 2019).

Experiment [1] has as its system ΔM-N L-selectin-GFP/RFP in THP-1 cells. Description: Phos-tag Western blot of L-selectin serine phosphorylation. Type of experiment: cell-based, human. The following applies: 100 nM PMA, 15 min; phos-tag gel. Background: In western blotting, separated proteins are transferred to a membrane and probed.
A further experiment has as its system ERM. The following applies: biochemically and in cells; cited from earlier work. The source says:
The cytoplasmic tail of L-s ...

Another experiment relates to THP-1 cells. Description: Antibody-mediated clustering (AMC) of L-selectin-GFP/RFP, FLIM/FRET. Type of experiment: cell-based, human. As to conditions: DREG56 plus secondary antibody. The source says:
(A) Schematic representation of the cleavage site, transmembrane domain (TMD), and cytoplasmic tail of human L-selectin. Red underlined region of the cleavage site denotes the amino acids that are deleted in ΔM-N L-selectin. […] Red arrow points to the position of the cut site of the L-selectin cleavage domain. (B) Cells expressing matched levels of L-selectin-GFP/RFP in the following forms: WT, ΔM-N, SSAA, ΔM-N^SSAA, and R357A were subjected to AMC using Alexa Fluor 647-conjugated DREG56 or isotype-matched control, followed by goat anti-mouse secondary antibody (see Materials and Methods for more detail). Cells were plated onto poly-L-lysine-coated coverslips and prepared for FLIM/FRET analysis (see materials and methods). FLIM was used to measure the FRET efficiency between the GFP/RFP donor/acceptor pairs as a direct function of cytoplasmic tail clustering […]. At least 45 individual cells were analyzed over 3 independent clustering assays. (C) Representative images are shown for each cell line. The lifetime of fluorescence (Lftm) is expressed in a pseudocolour scale from red (low lifetime with a very high probability of interaction) to blue (high lifetime with a very low probability of interaction). […] Cells were lysed directly in protein loading buffer (containing the reducing agent, dithiothreitol) and resolved onto standard (lower panel) or phos-tag (upper panel) polyacrylamide gels. Antibodies to GFP and RFP were used to, respectively, probe ΔM-N and ΔM-N^SSAA on Western blots. […] Statistics: One-Way ANOVA Tukey's multiple comparison test. **p ≤ 0.01; ***p ≤ 0.001; ****p ≤ 0.0001.
THP-1 cells were adjusted the night before AMC to a density of 0.5 ×10^6 cells per mL. On the same day, 13 mm diameter glass coverslips (thickness “1”) were placed into the base of a 24 well dish, spotted with 100 μL of poly-L-lysine (PLL) to immobilize according to manufacturer's instruction. On the day of the assay, THP-1 cells were counted and adjusted to a density of 1 ×10^6 per mL in 500 μL containing antibody labeling buffer (RPMI culture medium containing FcR block [Miltenyi Biotec]). Cells were labeled with 2 μg per mL DREG56 for 30 min at 4°C, followed by washing (by centrifugation at 300 g and resuspension) in ice cold culture media to remove excess unbound antibody and then incubated back in ice cold labeling buffer containing secondary antibody conjugated to Alexa Fluor […] (Thermo Fisher) for a further 30 min at 4°C. Cells were then washed twice in ice cold neat RPMI and resuspended to 100 μL of neat ice cold RPMI before 80 μL of the cell suspension was seeded onto 13 mm diameter glass coverslips (thickness = “1”), which were pre-coated with PLL-coated the night before. The seeded cells were placed into a humidified cell culture incubator at 37°C and 5% CO2 for 10 min to drive clustering. Adhered cells were flooded in excess 4% paraformaldehyde and fixed for 15 min at room temperature. Fixed coverslips were washed 3 times in PBS and then treated in 10 mg/mL of Sodium Borohydride dissolved in phosphate buffered saline for 10 min at room temperature (to eliminate autofluorescence and enhance signal to noise ratios). Coverslips were subsequently washed in PBS to remove sodium borohydride and mounted using DAKO mounting medium.
FLIM measurement of FRET was performed with a multiphoton microscope system as described previously ([8], [23]). A Nikon TE2000E inverted microscope, combined with an in-house scanner and Chameleon Ti:Sapphire ultrafast pulsed multiphoton laser (Coherent Inc.), was used for excitation of GFP (at 890 nm). Fluorescence lifetime imaging capability was provided by time-correlated, single-photon counting electronics (SPC 700; Becker & Hickl). A 40 × objective (NA 1.3) was used throughout (CFI60 Plan Fluor; Nikon), and data were acquired at 500 ± 20 nm through a bandpass filter (35–5040; Coherent Inc.). […]

The test system of experiment [2] is THP-1 cells over TNF-α-activated HUVEC. Description: Pseudopod protrusion scoring in TEM under flow. Type of experiment: cell-based, human. The method, then: (A) The number of protrusions formed over this period was scored as: zero, one, two, or >2. (B) The percentages of cells bearing these protrusions were scored at specific time points: 6 min (blue bars), 15 min (green bars), or 25 min (red bars). Supplementary Videos 2, 3, 4 provide examples of cells producing a range of protrusions as TEM proceeds. Data represent SEM of 3 fields of view per flow experiment, conducted on three separate occasions, and at least 180 cells analyzed per group. Values of the vertical lines indicate the differences in protrusion number (specifically “zero” and “two”) corresponding to each of the cell lines, for which statistical significance is shown in Table 1.
All flow experiments were performed using a 35 mm diameter Glycotech parallel plate flow chamber. Perfusion experiments were performed at 1.5 dyn/cm^2 using a Harvard Apparatus 2000 PHD syringe pump. Perfusion media consisted of: RPMI supplemented with L-glutamine, 10% FCS, 1% penicillin/streptomycin, 50 μM β-mercaptoethanol, and 25 mM HEPES. Human Umbilical Vein Endothelial Cells (HUVEC–Lonza) were seeded onto 35 mm diameter glass coverslips (no. 1 thickness; VWR) that were pre-coated with 10 μg/mL fibronectin (37°C for at least 1 h). Before each perfusion assay, HUVEC were stimulated overnight (16 h) with 10 ng/mL carrier-free recombinant human TNF-α (R&D Systems). Each perfusion assay was performed by injecting a bolus of cells for 6 min, followed by just perfusion media (without cells) for the […]. THP-1 cells were perfused at a density of 0.5 ×10^6 cells per mL. THP-1 cells treated with 10 μM TAPI-0 required a preincubation time of 10 min at 37°C before perfusion over TNF-α-activated HUVEC. Note that 10 μM TAPI-0 was also supplemented in the perfusate. Stills were acquired once every 10 seconds using 10 × objective lens.

The subject of another experiment is calmodulin. As to conditions: transmigrating pseudopods; ref previously published (no number given at b28; b24 cites ref 8); cited from earlier work.

Positions count from the first letter of the chain named. In names and notes the source's numbering stands.

In the case of `CCCCCCCCCCCCCC(=O)O[C@@H]1[C@@H](C)[C@@]2(O)[C@@H](C=C(CO)C[C@]3(O)C(=O)C(C)=C[C@@H]23)[C@@H]2C(C)(C)[C@]12OC(C)=O` [PMA, phorbol myristate acetate], the “serine phosphorylation of L-selectin” value in experiment [1] is “serine phosphorylation was detected only when cells were robustly stimulated with the phorbol ester, PMA”.

B1: R357A: ERM-binding mutant of L-selectin, arginine 357 mutated to alanine (protein)
chain: WTYHYSEKPMNWQRARRFCRDNYTDLVAIQNKAEIEYLEKTLPFSRSYYWIGIRKIGGIWTWVGTNKSLTEEAENWGDGEPNNKKNKEDCVEIYIKRNKDAGKWNDDACHKLKAALCYTASCQPWSCSGHGECVEIINNYTCNCDVGYYGPQCQFVIQCEPLEAPELGTMDCTHPLGNFSFSSQCAFSCSEGTNLTGIEETTCGPFGNWSSPEPTCQVIQCEPLSAPDLGIMNCSHPLASFSFTSACTFICSEGTELIGKKKTICESSGIWSNPSPICQKLDKSFSMIKEGDYNPLFIPVAVMVTAFSGLAFIIWLARALKKGKKSKRSMNDPY
modifications: left off: eGFP (donor copy) or mCherry (acceptor copy, called RFP), C-terminal, kept
Turning to B1, the L-selectin/ERM interaction result with ERM is reported as “block L-selectin/ERM interaction”. In addition, in the experiment with THP-1 cells, the “change in FRET efficiency on AMC or versus comparator (in words)” value is recorded as “lacked any significant increase in FRET efficiency”. For the same molecule, the “FRET efficiency after AMC” value in the experiment on THP-1 cells (10 min at 37°C, GFP/RFP pair, at least 45 cells, 3 independent assays) turned out to be 2.47%.

B2: S367A: L-selectin with Ser^367 mutated to alanine, GFP-tagged, expressed in THP-1 cells (protein, UniProt P14151 39-372, looked up, variant S367A)
L-selectin: B1 chain with A319R, S329A
modifications: C-terminal GFP tag
For the molecule B2, the “protrusive activity profile in TEM (in words)” value in experiment [2] (6, 15 and 25 min of flow over TNF-α-activated HUVEC) was “possessed the fewest protrusions over the recorded period, differing significantly from WT and S364A L-selectin-expressing cell lines”. In experiment [2] (15 min time point, mean of 3 fields of view per flow experiment, three occasions, at least 180 cells per group, significance ** S367A p ≤ 0.01 (Tukey), % printed), the “cells with 2 protrusions” value is given as 13.7%. In experiment [2] (15 min time point, mean of 3 fields of view per flow experiment, three occasions, at least 180 cells per group, significance *** S367A p ≤ 0.001, ** SSAA p ≤ 0.01 (Tukey), % printed), the “cells with 0 protrusions” value is 34.4%. The “interaction of calmodulin with L-selectin” value with calmodulin is reported as “significantly reduced interaction of calmodulin”.
